B1: Endolysin, P03706 (parent)
chain: MVEINNQRKAFLDMLAWSEGTDNGRQKTRNHGYDVIVGGELFTDYSDHPRKLVTLNPKLKSTGAGRYQLLSRWWDAYRKQLGLKDFSPKSQDAVALQQIKERGALPMIDRGDIRQAIDRCSNIWASLPGAGYGQFEHKADSLIAKFKEAGGTVREIDV

Variants of: B1
Conditions: Escherichia phage lambda, pH 7, Thermal, Fluorescence, phosphate buffer 100 mM, reversible: yes, structure 1AM7, whole UniProt chain shown; for ddG of mutation (higher = less stable) / unfolding free energy: 25 °C

## H31D
  ddG of mutation (higher = less stable): 1.6 kcal/mol
  unfolding free energy: 5.5 kcal/mol
  Tm: 46.1 °C
  change of melting temperature, mutant - wild type (higher = more stable): -6.2 °C
  unfolding enthalpy (van 't Hoff): 99.8 kcal/mol

## H31N H137N
  ddG of mutation (higher = less stable): -1.8 kcal/mol
  unfolding free energy: 8.9 kcal/mol

## H48N
  ddG of mutation (higher = less stable): 5 kcal/mol
  unfolding free energy: 2.1 kcal/mol
  Tm: 30.1 °C
  change of melting temperature, mutant - wild type (higher = more stable): -22.2 °C
  unfolding enthalpy (van 't Hoff): 60.8 kcal/mol

— FireProtDB (doi:10.1016/s0014-5793(99)01395-2)
